Where a chain is given by its changes, count along the chain named.
How the values were obtained:
ABCB1-YFP P1.008G = target: T1, ABCB1-YFP P1.008G (Arabidopsis, UniProt Q9ZR72 1-1286, P1.008G); assay: FRET or BRET
T1 sequence: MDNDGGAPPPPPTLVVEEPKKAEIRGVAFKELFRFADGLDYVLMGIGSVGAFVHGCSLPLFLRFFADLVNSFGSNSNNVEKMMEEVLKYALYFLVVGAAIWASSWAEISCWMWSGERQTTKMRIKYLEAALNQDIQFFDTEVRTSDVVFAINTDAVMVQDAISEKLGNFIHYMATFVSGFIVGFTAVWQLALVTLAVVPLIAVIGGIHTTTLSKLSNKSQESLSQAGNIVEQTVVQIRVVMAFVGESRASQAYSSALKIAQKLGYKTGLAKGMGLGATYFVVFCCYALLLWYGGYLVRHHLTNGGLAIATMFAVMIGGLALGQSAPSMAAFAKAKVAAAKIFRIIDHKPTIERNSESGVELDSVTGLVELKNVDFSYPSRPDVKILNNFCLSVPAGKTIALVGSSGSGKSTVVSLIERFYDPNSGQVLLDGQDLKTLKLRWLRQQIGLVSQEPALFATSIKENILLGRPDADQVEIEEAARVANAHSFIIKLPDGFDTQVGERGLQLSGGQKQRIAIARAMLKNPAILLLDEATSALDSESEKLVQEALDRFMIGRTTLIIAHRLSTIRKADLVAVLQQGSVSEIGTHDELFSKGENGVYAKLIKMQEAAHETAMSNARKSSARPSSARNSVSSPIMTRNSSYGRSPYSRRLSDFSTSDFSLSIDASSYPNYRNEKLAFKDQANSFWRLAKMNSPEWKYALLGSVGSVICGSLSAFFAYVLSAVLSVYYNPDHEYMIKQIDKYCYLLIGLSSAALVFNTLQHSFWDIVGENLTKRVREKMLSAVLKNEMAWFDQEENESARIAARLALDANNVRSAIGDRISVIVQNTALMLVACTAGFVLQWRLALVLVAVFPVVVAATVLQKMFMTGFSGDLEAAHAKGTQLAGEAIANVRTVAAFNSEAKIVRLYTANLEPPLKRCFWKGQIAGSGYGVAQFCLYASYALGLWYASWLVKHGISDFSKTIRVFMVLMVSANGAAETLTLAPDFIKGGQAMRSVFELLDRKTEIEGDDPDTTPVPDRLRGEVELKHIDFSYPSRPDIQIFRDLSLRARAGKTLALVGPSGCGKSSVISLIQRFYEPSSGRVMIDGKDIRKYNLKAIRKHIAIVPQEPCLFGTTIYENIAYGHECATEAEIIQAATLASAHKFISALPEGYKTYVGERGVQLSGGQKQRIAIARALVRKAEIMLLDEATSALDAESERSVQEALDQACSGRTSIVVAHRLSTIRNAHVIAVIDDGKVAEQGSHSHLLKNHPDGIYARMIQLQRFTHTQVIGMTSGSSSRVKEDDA

ABCB1-YFP E1.007A = target: T2, ABCB1-YFP E1.007A (Arabidopsis, UniProt Q9ZR72 1-1286, E1.007A); assay: FRET or BRET
T2 sequence: T1 sequence with E1007A, G1008P

B1: TWD1-Rluc (natural protein)
chain: MDESLEHQTQTHDQESEIVTEGSAVVHSEPSQEGNVPPKVDSEAEVLDEKVSKQIIKEGHGSKPSKYSTCFLHYRAWTKNSQHKFEDTWHEQQPIELVLGKEKKELAGLAIGVASMKSGERALVHVGWELAYGKEGNFSFPNVPPMADLLYEVEVIGFDETKEGKARSDMTVEERIGAADRRKMDGNSLFKEEKLEEAMQQYEMAIAYMGDDFMFQLYGKYQDMALAVKNPCHLNIAACLIKLKRYDEAIGHCNIVLTEEEKNPKALFRRGKAKAELGQMDSARDDFRKAQKYAPDDKAIRRELRALAEQEKALYQKQKEMYKGIFKGKDEGGAKSKSLFWLIVLWQWFVSLFSRIFRRHRVKAD
- reduction of the BRET ratio against Wt ABCB1-YFP (ABCB1-YFP P1.008G): ~17%
- reduction of the BRET ratio against Wt ABCB1-YFP (ABCB1-YFP E1.007A): ~39%

Reference: paper doi:10.1101/2020.05.08.084087 (bioRxiv, 2020)
